# Assay: label from the status in PepcDB records
# 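Further: failed if final PepcDB status was selected cloned or expressed and not failed if soluble or beyond.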
row,Sequence,protein production
1,MAQKENSYPWPYGRQTAPSGLSTLPQRVLRKEPVTPSALVLMSRSNVQPTAAPGQKVMENSSGTPDILTRHFTIDDFEIGRPLGKGKFGNVYLAREKKSHFIVALKVLFKSQIEKEGVEHQLRREIEIQAHLHHPNILRLYNYFYDRRRIYLILEYAPRGELYKELQKSCTFDEQRTATIMEELADALMYCHGKKVIHRDIKPENLLLGLKGELKIADFGWSVHAPSLRRKTMCGTLDYLPPEMIEGRMHNEKVDLWCIGVLCYELLVGNPPFESASHNETYRRIVKVDLKFPASVPTGAQDLISKLLRHNPSERLPLAQVSAHPWVRANSRRVLPPSALQSVA,failed
2,MAQLPASMRRKRAAITSIHEKPPSRKQKLVNAGGWILLCIAFVVLAAGVYGLYKVITDAKIADLSIVGTRSVVEQNQLQQHIQPIIKDNYFTSDLEQIRDKALEISWVDRVVVSRAWPNSIRVRIMPRHAIARWGTGRLLSDSGDVYAEAELKNHPNLPMLHGPITQSKAMMRRYNEINQLFQPVNLRLTELYLTERMTWFMQFDSGLRVIVDQDQTMSKLQRLSHLAQTDLKPVWSKISAIDLRYRNGLSLQWKTGVPPKILNGQFVVTSDDTNVASGMTAKP,failed
3,MAQLSARAREDPAAVVDCLPELRQELATLDPRPREHAAEVVATIAHHYPEAARTAVDDIRPLLSDANPGVRAEAARALAEVATTFPDAVYPSVCDLLDRLTDDHYESRVNAAWALAELATEQPAGLRPAVEALCGVLTDDVAAVRAGGVWALAELAEEYPEPVRNAVPALRRLLDDDATLVRVHAARALAVLAETHPDAVEPARVDLEAFGNGEPEDLRKAVTFALAQLDEQTTEAKATSTAGATIDDPLPEEEWIFGGSDTETTATSSGLSAGGIPETVPDVPTPDLSYDDLKKQTTVENGDLSAVYRAAASTENGTVPVALKELRPSDGATLDSDLAHEAYTEARRWEGLDDHDHIVTLVDYGREPTVWFAMEYMDAGHLAEVADSLAFEHRLWSALVLTRAIRRAHRAGILHLNLKPENVLFRTVDDGWAVPKISDWGMEIQPHQDDHDVVPRYAAPEQLADDGRTDGVTDVYQLGRAFYQLFTGRPAFETTPECPADIVEAEPPAPSDIASVPAAVGDIIRTAMAPSQPDRYGAVVYLQEELETICADHGVPTT,failed
4,MAQPSTTYKFELNLTDLDRGVYESVKQTIARHPSETEERMTVRLLAYAFWYNEQLAFGRGLSDVDEPALWEKSLDDRVLHWIEVGQPDADRLTWCSRRTERTSLLAYGSLRVWEGKVIPAIKNLKNVNIAAVPQDVLEVLAKDMPRVIKWDVMISEGTVFVTDDRGQHEVQLQWLTGERG,not failed
5,MAQRGDPPPLRQYVAVRARLVGSGLVVGLLLGGLGMAGWTLYTGDARSSEATVFALGAMVFGFGLLGWSGSILAGRGIEAMQEHMDTRSNWTERDSRRAMARLCGGGGGIMVGTSVVAALL,failed
6,MAQRIFTLILLLCSTSVFAGLFDAPGRSQFVPADQAFAFDFQQNQHDLNLTWQIKDGYYLYRKQIRITPEHAKIADVQLPQGVWHEDEFYGKSEIYRDRLTLPVTINQASAGATLTVTYQGCADAGFCYPPETKTVPLSEVVANNAAPQPVSVPQQEQPTAQLPFSALWALLIGIGIAFTPCVLPMYPLISGIVLGGKQRLSTARALLLTFIYVQGMALTYTALGLVVAAAGLQFQAALQHPYVLIGLAIVFTLLAMSMFGLFTLQLPSSLQTRLTLMSNRQQGGSPGGVFVMGAIAGLICSPCTTAPLSAILLYIAQSGNMWLGGGTLYLYALGMGLPLMLITVFGNRLLPKSGPWMEQVKTAFGFVILALPVFLLERVIGDVWGLRLWSALGVAFFGWAFITSLQAKRGWMRIVQIILLAAALVSVRPLQDWAFGATHTAQTQTHLNFTQIKTVDELNQALVEAKGKPVMLDLYADWCVACKEFEKYTFSDPQVQKALADTVLLQANVTANDAQDVALLKHLNVLGLPTILFFDGQGQEHPQARVTGFMDAETFSAHLRDRQP,failed
7,MAQRQPHSPNQTLISITNDTESSSSVVSNDNTNKGWSGDNSPGIEALCAIYITYAVIISVGILGNAILIKVFFKTKSMQTVPNIFITSLAFGDLLLLLTCVPVDATHYLAEGWLFGRIGCKVLSFIRLTSVGVSVFTLTILSADRYKAVVKPLERQPSNAILKTCVKAGCVWIVSMIFALPEAIFSNVYTFRDPNKNMTFESCTSYPVSKKLLQEIHSLLCFLVFYIIPLSIISVYYSLIARTLYKSTLNIPTEEQSHARKQIESRKRIARTVLVLVALFALCWLPNHLLYLYHSFTSQTYVDPSAMHFIFTIFSRVLAFSNSCVNPFALYWLSKSFQKHFKAQLFCCKAERPEPPVADTSLTTLAVMGTVPGTGSIQMSEISVTSFTGCSVKQAEDRF,failed
8,MAQRVQLTATVSENQLGQRLDQALAEMFPDYSRSRIKEWILDQRVLVNGKVCDKPKEKVLGGEQVAINAEIEEEARFEPQDIPLDIVYEDEDIIIINKPRDLVVHPGAGNPDGTVLNALLHYYPPIADVPRAGIVHRLDKDTTGLMVVAKTVPAQTRLVESLQRREITREYEAVAIGHMTAGGTVDEPISRHPTKRTHMAVHPMGKPAVTHYRIMEHFRVHTRLRLRLETGRTHQIRVHMAHITHPLVGDPVYGGRPRPPKGASEAFISTLRKFDRQALHATMLRLYHPISGIEMEWHAPIPQDMVELIEVMRADFEEHKDEVDWL,not failed
9,MAQTCSILYIPYMLLLSSLFAAGIATITEGELLSSMIGVQGLIYCKRGSKLTPIQGAVARVTCERTDEYGYEAEDVTVLSQATDAKGYFLATLSSSEVKDYKKVIKIKECRAFLELSPSDTCSFPTEINRGISGAILQNYRLLENKLKMKLFTVGPFVFSSEETQDKSIPNGY,failed
10,MARDNENILEEWCLIESNPCIFYDMLKRMGATEISVEDVYSLSYFDDYINNKEIINMNHILGVDTYLGENNKTLDKENNVVDVIELYKNNICMEDKYNKLLKHHSYIYGIIFLFNIGKHYKNNKYIEHNVPDNLFFAKQVIPNACATQAILSIVLNKDIELNDEIKNIKTFSLNFDSSMKGLTLSNCTFLRNIHNSYKPPIYLDKEDVHHDKKKSEDSFHFVSYISFQDKVYLLDGLQSGPVLINADEQNKPNPNNNNNNKDNDNDNNNNNNNNNNNNNNNNNNNNNNNNNNIGMNGKDWIEISREHIKKEIDEICNSQTNNDVRFNIIAVMKDKEYIIQEYINIHRIVKQRVNIKLINLGENIELSDEINEDEFPLLNDIPSIENLPNNVDTLYNIVNKSTLEINYLQSLLHEQKEIKKLWNIELTFKFFNFYPFIMSSLNLMAKHKLLKDAYQKEKLKNATKS,failed
11,MARIDHVGLMVKDIDASIAFYQNVIGMTLKGRMTHTNGVMKLAFLGFENRDETELELIEGYNDNLPQEGKVHHFAVSTDDIEAEFDRVKGAGIKLMEDEITVLPNGFRYFFLFGPEGEMVEFFQRT,failed
12,MARILKKNKNELLDILEDYMTDCKYRDLRRTTIRAYEQSLRLLFKFLEDDYKVIYVEDVKEEHIRNYIDFTKERGKYSYVANENNINSNVPQNRGDFGKKVSLCTLDNYLGNIKMFFTWCKDNKLISKDPSFKIKRIKYSRKAKAEITIDEFNKLLKSLDLTLFSEYRDYIVIQLLMDTGMRVGECLELREEDIDIRNKTIFISGEIAKGRRDRYVFFSNTMQRMLQKWLNYKDRYVESNYIFVTNRGGKYQVHSFEKHMRNYLKKAKIDKQITPHTLRNNFAKRFLMSGGDIYTLSRLLGHSDIRTTQSAYLDLTTSDIRKNYLKFSPLENMKKKNW,failed
13,MARKIGSRYTAHQILGRGSAGTVWLGEGPDGPVAIKLLREDLASDQELVSRFVQERTALLGLDHPHVVSVRDLVVDGNDLALVMDLVRGTDLRTRLDRERRLAPEAAVAVVADVADGLAAAHAAGVVHRDVKPENVLLDMQGPLGPGGSHPALLTDFGVAKLIDTPRRTRATKIIGTPDYLAPEIVEGLPPRAAVDIYALATVLYELLAGFTPFGGGHPGAVLRRHVTETVVPLPGIPDELWQLLVQCLAKAPASRLRASELSARLRELLPMLAGMAPLDVDEPDAEQPEDAPDASAASPAAPVSTAEPVRRRGAVPLVPGAKPADSNRDTHTSMRVPAPDELAGGARGTARAPRASGAPRPGSARNRAATRRRRIAVGAGAVALVAAIGVGTWLATGGDEDGGGPQDTRNSAPAAP,failed
14,MARKRLIIEMGMGIDQHGQEPTIAASRAVRNAIAHNALPGVWEVAGLSHPNEMIIEVQVAVPYPEQVREEEVLAVLPFGRKTLTVESGGMIVQGRAIPELNDKNDEMLIAIAAVTVLIENE,not failed
15,MARPQDPPRGFFPFGNPFKNLSSKNSVLSSKLLPLLNNFETNLASSISKLVPKEKSDILTVSWMKQAMESLCETHNGIKTLITDLELPVSDWEDKWVDVYLDISVKLLDLCNAFSSELTRLNQGHLLLQFALHNLEANSPQNLSKAQSSLDSWKQHIVSKNPRIENCRAILSSLVQTLNLPKVKNSAKGKVLMRALYGVKVKTLYISGVFAAAFSGSSQNLMYLTVSNELPWAQSFMEVQNTMNAEIKNIFLSDGLTVLKELEAVASGVKKLYPAIQQGSIDPISLQPLKDSVTELSNGIDLVSKEVDCFFKILLSGRDTLLENLRSMGASTLQATSPKKAAGKNYRGF,failed
16,MARRNRGVTRRERPNLLITGTPGTGKSTTASALAEATNLRYICIGDLVKEKEFYHGWDNELECHFINEDSVIDELDDAMIEGGNIVDYHGCDFFPQRWFDRVVVLRTENSVLYDRLTNSKVLIVFSQPTKAGVIQEPSLVTTFNAKCIKSYSKKHMTVMMRKLSLNYKGEAMLAKTVFPRGLLVLRSFSSVASKTLLKVGDVLRETRVFSSEDIKAYAEVSHDWNPLHFDPESARKAGFENRLVHGMLVSSMFPRIISAHFPGAVYVSQSLHFRSPVYIGDEILGLVQAIALRETKNKYIVKFSTKCFKNHNELVVIDGEATAILPNLDMLQKSPSE,failed
17,MARRPFSSQSLVLIVIAIAINMIGGQLISMLKLPIFLDSIGTLISAVLLGPFIGMLTGLLTNLLWGLLTDPIAAAFAPVAMVIGLVAGWLARAGWFRTLPKVIVSGVVITLAVTLVAVPLRTALFGGVTGSGADLFVAWMHSMGQNLVESVAITVIGANLVDKILTAIIVWVLLRQLPLRTTRHFPAMSAVR,failed
18,MARTIENMAKPASDMPPYDKAAALRGLAGARRVALLMAPRLGDTLLMMNMARNLAAHGREVSIFGDYIHGLRDWFPGLDIRPSLSEEQAGQVLPGYDCAAQMHVGWPYALHAHQPNYFYYDAHVAITGRGFVKLFQIRDFCREQLGLAQAGADNGLRPPPQVQPHRSHPRRVALHPTSTGAQRCWAPRHFKELGLRLLHEGYEPNYIVAPHERAEWSWVLDHGLHLPQFPSLSEVAGFIHASGWFIGNESGIGHLASNVGVPTLSLTGRPTRTRAWRPAWSTSRIVYPALIPGGRWRDRLWREWLSPRRVMSAFHKLQADDRRQPVGVPWGKI,failed
19,MARVLVDFQPVGRRVEVDAGQTILSAIQQLGLSLGAGGLTAPCGGRGLCGRCRVRIASGEVGEVNPAERRFLTPAQLEKGYRLACQATVIGPVKVEIPPESMLGVQKLQVEGLDIAVTPEPPVKRYNLPLSKTTIENPLPLWQQVTGELEATYGLDRPGVDFGLAREWKPMATEGECVVTVRGPEVINIYTGRLAPPPVGLAVDLGTTKVAGFLINLETGATLAADGIMNPQITYGEDVMARLGYALEGEEEYRRIQEVEIEGLNRLAATLAAKAGVATTDIEEAVIVGNTAMHHLLLHLPVEQLARAPYVPALTTPVEIKTRNLGLNLSPGAFVYLQPVIAGFVGGDHVAMILGSRIDEARKVTLGLDIGTNTEIVLSYGGKMLSCSCASGPAFEGAHIAQGMRAVTGAIAAVRLSDDGRDVFWESIGGVPPLGICGSGILDAVAELYRTGILNASGRLDLNHPRVRRPAGGGPPEFLLVPAAETGIDGDLVVTQKDINEIQLAKAAIATGTLLLLEAAGLTVKDLEEVVVAGAFGTHLKLESAITIGMFPNLPLTAFRQVGNAAGTGARLALLSLTERKRGEAIARQVGYLELMTRPSFHEVYVKSLLLP,failed

# Source: a protein production outcome set (Wang et al. 2014)
